What was measured:
[1] = Peracetic acid generated in solution by C277S CXH fusions (Example 9); details: 0.5 μM enzyme, sarkosyl buffer, 100 mM triacetin, 100 mM H2O2, pH 7.2, 10 min, 37° C.
[2] = Peracetic acid from C277S CXH fusions exposed to hydroxyapatite discs (Example 9); details: no enzyme control subtracted; for Peracetic acid (ppm) Exposed to Hydroxyapatite, Disc: disc-bound enzyme, 100 mM triacetin, 100 mM H2O2, 30 min, 37° C.; for Peracetic acid (ppm) Exposed to Hydroxyapatite, Supernatant: unbound enzyme in supernatant after 10 μM enzyme on disc
[3] = Peracetic acid generated in solution by CE-7 perhydrolase fusions (Example 8); format: biochemical; details: 0.5 μM enzyme, 100 mM triacetin, 100 mM H2O2, pH 7.2, 10 min, 37° C.; no enzyme 378.9
Procedure: (§1) The detection of peracetic acid followed the method described in Pinkernell et. al. (Analyst, 1997, 122, 567) using colorimetric detection of 2,2′-azino-bis(3-ethylbenzothiazoline(-6-sulfonate (ABTS) oxidation by peracetic acid. Following the formation of peracetic acid with the addition of triacetin and hydrogen peroxide, 90 μL of solution was added to 10 μL of 0.1 M H3PO4 in a well plate. 50 μL of 1 M acetic acid, 50 μL of 0.5 g/L ABTS and 50 μL of 0.002 g/L of KI was added. The solution was allowed to develop for 5 min. The absorbance of the solution was measured at 405 nm using a microplate reader. The peracetic acid concentration was calculated based on a standard curve developed simultaneously using peracetic acid reagent solution.
Perhydrolase enzymes listed in Table 6 were assessed for solution activities. The method to measure the perhydrolase in solution activity was described in Example 7 by making a 500 μL solution containing 0.5 μM of enzyme, 100 mM triacetin, 100 mM H2O2 in 100 mM phosphate buffer, pH 7.2. The solution was mixed and incubated for 10 min at 37° C. A 10 μL aliquot was removed and diluted for detection as described in Example 7. Peracetic acid concentration was determined using a standard curve generated with a stock solution of peracetic acid (Aldrich). The experiment was also performed with no enzyme present as a control.

[4] = Peracetic acid generation from hydroxyapatite bound CE-7 perhydrolase fusions (Example 8); format: biochemical; details: hydroxyapatite particles exposed to 10 μM enzyme, washed; 100 mM triacetin, 100 mM H2O2, 30 min, 37° C.; no enzyme 30-118.8
Procedure: as §1
To assess binding of these constructs to hydroxyapatite, 33 mg of hydroxyapatite particles (Macro-prep Ceramic Hydroxyapatite TYPE I, 80 μm size BioRad, Hercules, Calif.), were washed with 10 mM phosphate buffer at pH 7.2. After removing the supernatant, enzyme stock solution was added to the hydroxyapatite dispersion to a final concentration of 10 μM and incubated for 30 min in a microcentrifuge tube with gentle agitation. Each sample was centrifuged for 1 min at 10000 rpm. The supernatant was removed and additional buffer was added. The particles were resuspended and transferred to a new tube. The process was repeated two additional times. The hydroxyapatite bound enzyme activity was measured by adding a 500 μl solution containing 100 mM triacetin, 100 mM H2O2 in 100 mM phosphate buffer, pH 7.2. The solution was incubated for 30 min, at 37° C. An aliquot was removed and mixed with H3PO4 and properly diluted for detection via ABTS oxidation as described in Example 7. The experiments were performed at different day with no enzyme as control for each experiment.

Row | PAA (ppm) [3] | Peracetic acid (ppm) [4] | Molecule | Peracetic acid (ppm) In Solution [1] | Peracetic acid (ppm) Exposed to Hydroxyapatite, Disc [2] | Peracetic acid (ppm) Exposed to Hydroxyapatite, Supernatant [2]
1 | – | – | EZ-21: C277S-EPEPE-link1-EPEPE-CXHG2-H6, SEQ ID NO: 445 (protein) MAFFDLPLEELKKYRPERYEEKDFDEFWEETLAESEKFPLDPVFERMESHLKTVEAYDVTFSGYRGQRIKGWLLVPKLEEEKLPCVVQYIGYNGGRGFPHDWLFWPSMGYICFVMDTRGQGSGWLKGDTPDYPEGPVDPQYPGFMTRGILDPRTYYYRRVFTDAVRAVEAAASFPQVDQERIVIAGGSQGGGIALAVSALSKKAKALLCDVPFLCHFRRAVQLVDTHPYAEITNFLKTHRDKEEIVFRTLSYFDGVNFAARAKIPALFSVGLMDNISPPSTVFAAYNYYAGPKEIRIYPYNNHEGGGSFQAVEQVKFLKKLFEKGEPEPEGPGSGGAGSPGSAGGPGSEPEPEPLWRRITKRKLVRPVATLMWYWFTSKRHHHHHH | 2764 ppm | 3109 ppm | 1581 ppm
2 | 998 ppm | 260 ppm | EZ-35: Lla-link1-DenP308-H6, SEQ ID NO: 459 (protein) MTKINNWQDYQGSSLKPEDFDKFWDEKINLVSNHQFEFELIEKNLSSKVVNFYHLWFTAIDGAKIHAQLIVPKNLKEKYPAILQFHGYHCDSGDWVDKIGIVAEGNVVLALDCRGQGGLSQDNIQTMGMTMKGLIVRGIDEGYENLYYVRQFMDLITATKILSEFDFVDETNISAQGASQGGALAVACAALSPLIKKVTATYPFLSDYRKAYELGAEESAFEELPYWFQFKDPLHLREDWFFNQLEYIDIQNLAPRIKAEVIWILGGKDTVVPPITQMAAYNKIQSKKSLYVLPEYGHEYLPKISDWLRENQGPGSGGAGSPGSAGGPGSDPTKPPRTPTANTSRPHHNFGSGGGGSPHHHHH | – | – | –
3 | – | – | EZ-24: C277S-…-Link1-CXH104-H6, SEQ ID NO: 448 (protein) MAFFDLPLEELKKYRPERYEEKDFDEFWEETLAESEKFPLDPVFERMESHLKTVEAYDVTFSGYRGQRIKGWLLVPKLEEEKLPCVVQYIGYNGGRGFPHDWLFWPSMGYICFVMDTRGQGSGWLKGDTPDYPEGPVDPQYPGFMTRGILDPRTYYYRRVFTDAVRAVEAAASFPQVDQERIVIAGGSQGGGIALAVSALSKKAKALLCDVPFLCHFRRAVQLVDTHPYAEITNFLKTHRDKEEIVFRTLSYFDGVNFAARAKIPALFSVGLMDNISPPSTVFAAYNYYAGPKEIRIYPYNNHEGGGSFQAVEQVKFLKKLFEKGEPEPEPEGPGSGGAGSPGSAGGPGSRMLSRILRMFVRILKRERLSQVRGLFVHHHHHH | 2951 ppm | 3453 ppm | 719 ppm
4 | – | – | EZ-23: C277S-EPEPE-Link1-EPEPE-CXH104-H6, SEQ ID NO: 447 (protein) MAFFDLPLEELKKYRPERYEEKDFDEFWEETLAESEKFPLDPVFERMESHLKTVEAYDVTFSGYRGQRIKGWLLVPKLEEEKLPCVVQYIGYNGGRGFPHDWLFWPSMGYICFVMDTRGQGSGWLKGDTPDYPEGPVDPQYPGFMTRGILDPRTYYYRRVFTDAVRAVEAAASFPQVDQERIVIAGGSQGGGIALAVSALSKKAKALLCDVPFLCHFRRAVQLVDTHPYAEITNFLKTHRDKEEIVFRTLSYFDGVNFAARAKIPALFSVGLMDNISPPSTVFAAYNYYAGPKEIRIYPYNNHEGGGSFQAVEQVKFLKKLFEKGEPEGPGSGGAGSPGSAGGPGSEPERMLSRILRMFVRILKRERLSQVRGLFVHHHHHH | 2212 ppm | 4463 ppm | 1712 ppm
5 | – | – | EZ-20: C277S-EPEPEPEPEPE-link1-CXH201-H6, SEQ ID NO: 444 (protein) MAFFDLPLEELKKYRPERYEEKDFDEFWEETLAESEKFPLDPVFERMESHLKTVEAYDVTFSGYRGQRIKGWLLVPKLEEEKLPCVVQYIGYNGGRGFPHDWLFWPSMGYICFVMDTRGQGSGWLKGDTPDYPEGPVDPQYPGFMTRGILDPRTYYYRRVFTDAVRAVEAAASFPQVDQERIVIAGGSQGGGIALAVSALSKKAKALLCDVPFLCHFRRAVQLVDTHPYAEITNFLKTHRDKEEIVFRTLSYFDGVNFAARAKIPALFSVGLMDNISPPSTVFAAYNYYAGPKEIRIYPYNNHEGGGSFQAVEQVKFLKKLFEKGEPEPEPEPEPEGPGSGGAGSPGSAGGPGSWKTKKILLSRTRRIMRQVVRSVMHKIWHHHHHH | 2265 ppm | 2795 ppm | 1229 ppm
6 | – | – | EZ-22: C277S-EPEPEPEPEPE-Link1-CXHG2-H6, SEQ ID NO: 446 (protein) MAFFDLPLEELKKYRPERYEEKDFDEFWEETLAESEKFPLDPVFERMESHLKTVEAYDVTFSGYRGQRIKGWLLVPKLEEEKLPCVVQYIGYNGGRGFPHDWLFWPSMGYICFVMDTRGQGSGWLKGDTPDYPEGPVDPQYPGFMTRGILDPRTYYYRRVFTDAVRAVEAAASFPQVDQERIVIAGGSQGGGIALAVSALSKKAKALLCDVPFLCHFRRAVQLVDTHPYAEITNFLKTHRDKEEIVFRTLSYFDGVNFAARAKIPALFSVGLMDNISPPSTVFAAYNYYAGPKEIRIYPYNNHEGGGSFQAVEQVKFLKKLFEKGEPEPEPEPEPEGPGSGGAGSPGSAGGPGSPLWRRITKRKLVRPVATLMWYWFTSKRHHHHHH | 2305 ppm | 2495 ppm | 477 ppm
7 | – | – | EZ-19: C277S-EPEPE-link1-EPEPE-CXH201-H6, SEQ ID NO: 443 (protein) MAFFDLPLEELKKYRPERYEEKDFDEFWEETLAESEKFPLDPVFERMESHLKTVEAYDVTFSGYRGQRIKGWLLVPKLEEEKLPCVVQYIGYNGGRGFPHDWLFWPSMGYICFVMDTRGQGSGWLKGDTPDYPEGPVDPQYPGFMTRGILDPRTYYYRRVFTDAVRAVEAAASFPQVDQERIVIAGGSQGGGIALAVSALSKKAKALLCDVPFLCHFRRAVQLVDTHPYAEITNFLKTHRDKEEIVFRTLSYFDGVNFAARAKIPALFSVGLMDNISPPSTVFAAYNYYAGPKEIRIYPYNNHEGGGSFQAVEQVKFLKKLFEKGEPEPEGPGSGGAGSPGSAGGPGSEPEPEWKTKKILLSRTRRIMRQVVRSVMHKIWHHHHHH | 4088 ppm | 3136 ppm | 1665 ppm
8 | 2512.7 ppm | 534.2 ppm | EZ-28: Bpu-link1-HC263-H6, SEQ ID NO: 452 (protein) MQLFDLSLEELKKYKPKKTARPDFSDFWKKSLEELRQVEAEPTLESYDYPVKGVKVYRLTYQSFGHSKIEGFYAVPDQTGPHPALVRFHGYNASYDGGIHDIVNWALHGYATFGMLVRGQGGSEDTSVTPGGHALGWMTKGILSKDTYYYRGVYLDAVRALEVIQSFPEVDEHRIGVIGGSQGGALAIAAAALSDIPKVVVADYPYLSNFERAVDVALEQPYLEINSYFRRNSDPKVEEKAFETLSYFDLINLAGWVKQPTLMAIGLIDKITPPSTVFAAYNHLETDKDLKVYRYFGHEFIPAFQTEKLSFLQKHLLLSTGPGSGGAGSPGSAGGPGSPSAQSQLPDKHSGLHERAPQRYGPEPEPEPEPIPEPPKEAPVVIEKPKPKPKPKPKPPAHDHKNQKETHQRHAAGSGGGGSPHHHHHH | – | – | –
9 | 2332.9 ppm | 634.9 ppm | EZ-27: Bpu-link1-H6, SEQ ID NO: 451 (protein) MQLFDLSLEELKKYKPKKTARPDFSDFWKKSLEELRQVEAEPTLESYDYPVKGVKVYRLTYQSFGHSKIEGFYAVPDQTGPHPALVRFHGYNASYDGGIHDIVNWALHGYATFGMLVRGQGGSEDTSVTPGGHALGWMTKGILSKDTYYYRGVYLDAVRALEVIQSFPEVDEHRIGVIGGSQGGALAIAAAALSDIPKVVVADYPYLSNFERAVDVALEQPYLEINSYFRRNSDPKVEEKAFETLSYFDLINLAGWVKQPTLMAIGLIDKITPPSTVFAAYNHLETDKDLKVYRYFGHEFIPAFQTEKLSFLQKHLLLSTGPGSGGAGSPGSAGGPGSHHHHHH | – | – | –
